Article PMC11093223 (2024)

B1: syntaxin-16 (209–221) peptide [human] / TBC1D23 C-terminal domain [mouse] (parent complex)
chain 1: DDNTLYHRGFTED
chain 2: DRKEVVNIQTWINKPDIKHHFPCKEVKESGHMFPSHLLVTATHMYCLREILSRKGLAYIQSRQALNSVVKITSKKKHPELITFKYGNSSASGIEILAIERYLIPNAGDATRAIKQQIMKVLDALES

Variants of: B1
Assay: ITC

Kd [µM]	Variant
10.3	chain 1 R8A
